# Non-standard residues stand in square brackets, D forms with d. Phe(4-NO2) = N[C@@H](Cc1ccc([N+](=O)[O-])cc1)C(=O)O
# T1: acceptor hexapeptide Ac-DQNATF{4NO2}-NH2 (SMILES CC(=O)N[C@@H](CC(=O)O)C(=O)N[C@@H](CCC(N)=O)C(=O)N[C@@H](CC(N)=O)C(=O)N[C@@H](C)C(=O)N[C@H](C(=O)N[C@@H](Cc1ccc([N+](=O)[O-])cc1)C(N)=O)[C@@H](C)O)
# T1 construct: also called DQNATF{pNO2}; acceptor peptide
# T1 peptide: Ac-DQNAT[Phe(4-NO2)]-NH2
# Target: T1, acceptor hexapeptide Ac-DQNATF{4NO2}-NH2
# Test: calculated from the X-ray co-crystal structure with areaimol
protein,measurement,value
"oligosaccharyltransferase (OST) PgIB from Campylobacter lari, full length, with C-terminal decahistidine affinity tag (expressed from pSF2, purified in DDM and … (enzyme, Residues 283-306, 605-607 and the His tag are disordered in the structure; also called C. lari PgIB; PglB) MELQQNFTDNNSIKYTCILILIAFAFSVLCRLYWVAWASEFYEFFFNDQLMITTNDGYAFAEGARDMIAGFHQPNDLSYFGSSLSTLTYWLYSILPFSFESIILYMSTFFASLIVVPIILIAREYKLTTYGFIAALLGSIANSYYNRTMSGYYDTDMLVLVLPMLILLTFIRLTINKDIFTLLLSPIFIMIYLWWYPSSYSLNFAMIGLFGLYTLVFHRKEKIFYLAIALMIIALSMLAWQYKLALIVLLFAIFAFKEEKINFYMIWALIFISISILHLSGGLDPVLYQLKFYVFKASDVQNLKDAAFMYFNVNETIMEVNTIDPEVFMQRISSSVLVFILSFIGFILLCKDHKSMLLALPMLALGFMALRAGLRFTIYAVPVMALGFGYFLYAFFNFLEKKQIKLSLRNKNILLILIAFFSISPALMHIYYYKSSTVFTSYEASILNDLKNKAQREDYVVAWWDYGYPIRYYSDVKTLIDGGKHLGKDNFFSSFVLSKEQIPAANMARLSVEYTEKSFKENYPDVLKAMVKDYNQTSAKDFLESLNDKNFKFDTNKTRDVYIYMPYRMLRIMPVVAQFANTNPDNGEQEKSLFFSQANAIAQDKTTGSVMLDNGVEIINDFRALKVEGASIPLKAFVDIESITNGKFYYNEIDSKAQIYLLFLREYKSFVILDESLYNSAYIQMFLLNQYDQDLFEQVTNDTRAKIYRLKR",contact surface of the peptide buried at the interface of the TM and periplasmic domains,~80%
